Measurements published in patent US20130195869A1 (SEKISUI CHEMICAL, published 2013).
Changes are numbered by the printed parent chain.

T1: human CCR7 expressed on CHO-K1 cells (human CCR7 gene-introduced stable expression cell) (human, UniProt P32248 25-378)
T1 sequence: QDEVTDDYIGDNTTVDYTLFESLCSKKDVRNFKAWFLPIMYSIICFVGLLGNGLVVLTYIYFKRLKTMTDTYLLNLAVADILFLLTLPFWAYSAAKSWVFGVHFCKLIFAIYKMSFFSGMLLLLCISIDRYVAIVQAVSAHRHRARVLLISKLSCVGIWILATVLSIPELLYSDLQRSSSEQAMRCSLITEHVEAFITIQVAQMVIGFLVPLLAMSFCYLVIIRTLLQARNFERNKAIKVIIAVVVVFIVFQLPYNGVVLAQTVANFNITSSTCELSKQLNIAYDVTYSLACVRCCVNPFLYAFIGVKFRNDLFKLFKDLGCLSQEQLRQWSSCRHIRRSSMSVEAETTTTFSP

T2: human native CCR7 on peripheral blood mononuclear cells of a healthy person (human, UniProt P32248 25-378)
T2 construct: whole, on cells; Endogenous receptor on primary cells of a donor; kept apart from the recombinant receptor on CHO-K1 cells; also called CCR7 on PBMC
T2 sequence (looked up): T1 sequence

B1: anti-human CCR7 monoclonal antibody R7-01 (hybridoma FERM BP-11369) (antibody, IgG1, V domains shown)
VH: EVQLQQSGPELVKPGTSVKMSCKGSGYTFTDYYINWVRQSHGKSLEWIGRVNPGNGGTSYNQRFKGKATLTVDKFLSTAFMQLNSLTSEDSAVYFCARTGTYYNYDRGGFAYWGHGTLVTVSA
VL: DVLLTQSPVSLPVSLGDQASISCRCSQNIVHINGNTYLEWFLQKPGQSPKLLIYKVSNRFSGVPDRFSGSGSGTDFTLKIRRVEAEDLGVYYCFQGSHVPHTFGSGTK
notes: Mouse monoclonal antibody purified from hybridoma supernatant on protein G
B2: anti-human CCR7 monoclonal antibody R7-47 (hybridoma FERM BP-11376) (antibody, IgG1, V domains shown)
VH: EVQLQQSGPDLVKPGTSVKISCKASGYKFTDFNMDWVRQRHGKSLEWIGDVNPQNGEIFYNQKFRGKATLTVVKSSSTTYLELRSLTSEDTAVYFCTRLEFDYTGSNGFAYWGQGTLVTVSA
VL: DILMTQTPLSLPVSLGDQASISCRSSQTLVHRNGNTYLEWYLQKPGQSPKLLIYKVSNRFSGVPDRFSGRGSGTDFTLKISRVEAEDQGIYYCFQGSHDPWTFGGGTK
notes: Mouse monoclonal antibody from hybridoma
B3: anti-human CCR7 monoclonal antibody R7-11 (hybridoma FERM BP-11373) (antibody, IgG1, V domains shown)
VH: EVQLQQSGPDLVMPGASVRISCKASGYSFTAYYMHWVKQSHGLSLEWIGRVNPNNGGTSYNRKFKDKAILTVDRSSSTAFMELRSLTSEDSAVYYCARSESDHFYAMDSWGQGNSVSVSS
VL: DIVMTQTPLSLPVSLGDQVFISCRSSQSLVHSNGNTYLCWFLQKPGQSPKLLIYRVSNRFSGVPDRFSGSGSGTDFTLKISRVEAEDLGVYFCFQGSHVPHTFGSGTK
notes: as for B2
B4: anti-human CCR7 monoclonal antibody R7-18 (hybridoma FERM BP-11374) (antibody, IgG1, V domains shown)
VH: EVQLQQSGPDLVKPGASVKISCKASGYSFTGYYMHWVKQSHGKSLEWIGRVNPNNGGTSYNKKFKVKAILTVDRSSSTAYMEFRSLTLEDSAVYYCARSESNNFYAMDYWGQGKSVTVSS
VL: B3 VL with V3L, F20S, F41Y
notes: as for B2
B5: anti-human CCR7 monoclonal antibody R7-25 (hybridoma FERM BP-11375) (antibody, IgG1, V domains shown)
VH: EVMVVESGPGLMKPSQSLSLTCAVTGYSITSGYDWHWIRHFPGNILEWMGYINYSGSTNYKPSLKSRISITLDTSKNHFFLKLSSVTTEDTATYYCARGSYYSYEFAYWGQGTLVTVSA
VL: DIVMSQSPSSLAVSVGEKVTMSCKSSQRLLYYSTQKNYLAWYQQKPGQSPKLLIFWASTRESGVPNRFTGSGSGTDFTLTINSVKAEDLAVYYCQQYYTYPTFGGGTK
notes: as for B2
B6: anti-human CCR7 monoclonal antibody R7-02 (hybridoma FERM BP-11404) (antibody, IgG2a, V domains shown)
VH: QVQLQQSGAELERPGASVKLSCTASGFNIRDDYVHWVKQRPEQGLEWIGRIDPANGNTKYGPKFQAKATLTADTSSNTAYLQLGSLTSEDTAVYYCTRSFYDYDLFVPWGQGTLVTVSA
VL: DAVVTQESALTTSPGETVTLTCRSSTGAVTKNNFANWVQEKPDHLFTGLIGGNNIRAPGVPARFSGSLIGDKAALSITGAQTEDEAIYFCALWYSNHWVFGGGTK
notes: as for B2
B7: anti-human CCR7 monoclonal antibody R7-05 (hybridoma FERM BP-11371) (antibody, IgG2b, V domains shown)
VH: EVQLQQSGAELVRPGASVKLSCTASGFNIKDDYIHWVKQRPEQGLDWIGRVDPADGNTKYAPNFHDKATVTADTSSNTAYLQLSSLTSEDTAVYYCARSFYDYDLFASWGQGTLVTVSA
VL: B6 VL with K31T, N32S, G51S, G52S, I55K
notes: as for B2
B8: anti-human CCR7 monoclonal antibody R7-09 (hybridoma FERM BP-11372) (antibody, IgG2a, V domains shown)
VH: B7 VH with A9T, E42D, D46E, V51I, D55N, N63K, H65Q, V70I, A72S, T116S
VL: B6 VL with E16G, T19I, K31T, N32S, T47S, G51S, I55K, I87M, S95N
notes: as for B2

What follows are molecules tested against T1, human CCR7 expressed on CHO-K1 cells … (assay: cell-based or functional assay).

| 50% inhibition concentration (IC50) of the intracellular Ca^2+ rise caused by 1×10^-7 M CCL21 [nM] | Molecule |
| --- | --- |
| 340 | B1 |
| 7.4 | B2 |
| 16 | B3 |
| 11 | B4 |
| 22 | B5 |
| 46 | B6 |
| 94 | B7 |
| 32 | B8 |

What follows are molecules tested against T2, human native CCR7 on peripheral blood … (assay: flow cytometry, 0.5 µg antibody on 3×10^5 human PBMC, FITC anti-mouse IgG).
Procedure: From peripheral blood of a healthy person, mononuclear cells (PBMC) were isolated using Lymphoprep (Axis-Shield) according to a routine method. The isolated PBMC were suspended in a phosphate buffered saline (PBS) solution containing 1 mg/mL human gamma-globulin (Jackson Immuno Research Laboratories), and blocked by incubation at room temperature for 30 minutes. The PBMC (3×10⁵ cells) after blocking were incubated together with each anti-human CCR7 antibody (0.5 μg) or isotype control antibody (0.5 μg) at 4° C. for one hour. Thereafter, PBMC were washed three times with a washing buffer (PBS solution containing 0.1% fetal bovine serum). Then, a fluorescein isothiocyanate (FITC)-labeled anti-mouse IgG antibody (Beckman Coulter) was added as secondary antibody, and incubated at 4° C. for 1 hour. PBMC were washed again three times with the washing buffer, and then analyzed by using a flow cytometer (Beckman Coulter).

| Percentage of specifically binding cells [%] | Molecule |
| --- | --- |
| 10.8 | B1 |
| 49.3 | B2 |
| 25.5 | B3 |
| 40.5 | B4 |
| 47 | B5 |
| 44.6 | B6 |
| 37.3 | B7 |
| 32.9 | B8 |

Each molecule was assayed against human CCR7 expressed on CHO-K1 cells (human CCR7 gene-introduced stable expression cell) (human) (UniProt P32248) (assay: flow cytometry, 10 µg/mL antibody on hCCR7 gene-introduced CHO-K1 cells, PE anti-mouse IgG).

| Percentage of specifically binding cells (M2/(M1 + M2)) [%] | Molecule |
| --- | --- |
| 0.7 | mouse control IgG (Thermo, negative control) (antibody) |

Each molecule was assayed against T1, human CCR7 expressed on CHO-K1 cells … in the same assay as above.
Procedure: A 10 μg/mL solution of an anti-human CCR7 monoclonal antibody or mouse control IgG (Thermo, negative control) in PBS was prepared (hereinafter, referred to as “antibody solution”). After washing hCCR7 gene-introduced cells with PBS, the antibody solution was incubated together with the cells. Further, the cells were washed with PBS, and added with a phycoerythrin-labeled anti-mouse IgG antibody (Beckman Coulter) as a secondary antibody. Then interaction between the cells, and the anti-human CCR7 antibody or the mouse control IgG was analyzed by using a flow cytometer FACScalibur (Becton, Dickinson). FIG. 9 is a histogram showing an analytical result of interaction between hCCR7 gene-introduced cells, and mouse control IgG. FIG. 10 is a histogram showing an analytical result of interaction between a hCCR7 gene-introduced cell, and anti-human CCR7 antibody R7-47. […] In FIGS. 9 and 10, the vertical axis represents the number of cells, and the horizontal axis represents fluorescence intensity originating from phycoerythrin (PE). Of the two areas (M1, M2), the cell belonging to M2 (right area) indicates the cells that binds to the antibody. In Table 2, a percentage of specifically binding cells is represented by M2/(M1+M2).

| Percentage of specifically binding cells (M2/(M1 + M2)) [%] | Molecule |
| --- | --- |
| 99.8 | B1 |
| 99.9 | B2 |
| 100 | B3 |
| 100 | B4 |
| 100 | B5 |
| 100 | B6 |
| 100 | B7 |
| 100 | B8 |
